These results are taken from paper PMC8528238 (Nature, 2021).

The target in this assay is SARS-CoV-2 D614G stabilized spike ectodomain (SARS-CoV-2, D614G, UniProt A0A6H1PJZ3, D614G). Nature of the assay: ELISA. Background: In an ELISA, binding on a coated surface is turned into a signal by an enzyme label.

B1: DH1047, cross-neutralizing RBD antibody (antibody, V domains shown)
VH: QVQLVQSGAEVKKPGASVQVSCQASANTFTNHYIHWVRQAPGQGLEWMGIIYPTGGNTIYAQGFQGRVTMTRDTSLNTIYLELSSLRSEDTAVYYCARDVRVDDSWSGYDLLSGGTYFDYWGQGTLVTVSS
VL: not shown
Consider B1, for which the binding result was “binds”.

B2: DH1041, SARS-CoV-2-specific ACE2-binding site-focused RBD neutralizing antibody (antibody, V domains shown)
VH: EVQLVESGGGLVQPGGSLRLSCAASGVTFSSYWMSWVRQAPGKGLEWVANIRQDGSEKYSVDSVKGRFTISRDNAKNSLYLQMNSLRAEDTAVYYCARARRADNSGYYGFHFDCWGQGTLVTVSS
VL: QSVLTQPPSVSGAPGQRVTISCTGSSSNIGAGYDVHWYQQLPGTAPKLLIYGNNNRPSGVPDRFSDSKSGTSASLAITRLQAEDEADYYCQSYDSSLSGWVFGGGTKLTVL
Regarding B2, the binding result was “binds”.
